In patent publication US20100016234A1, “SIGNAL PEPTIDES, NUCLEIC ACID MOLECULES AND METHODS FOR TREATMENT OF CARIES” (The Governing Council of the University of Toronto, published 2010):

T1: S. mutans ComD protein (histidine kinase) (Streptococcus mutans)
T1 chain: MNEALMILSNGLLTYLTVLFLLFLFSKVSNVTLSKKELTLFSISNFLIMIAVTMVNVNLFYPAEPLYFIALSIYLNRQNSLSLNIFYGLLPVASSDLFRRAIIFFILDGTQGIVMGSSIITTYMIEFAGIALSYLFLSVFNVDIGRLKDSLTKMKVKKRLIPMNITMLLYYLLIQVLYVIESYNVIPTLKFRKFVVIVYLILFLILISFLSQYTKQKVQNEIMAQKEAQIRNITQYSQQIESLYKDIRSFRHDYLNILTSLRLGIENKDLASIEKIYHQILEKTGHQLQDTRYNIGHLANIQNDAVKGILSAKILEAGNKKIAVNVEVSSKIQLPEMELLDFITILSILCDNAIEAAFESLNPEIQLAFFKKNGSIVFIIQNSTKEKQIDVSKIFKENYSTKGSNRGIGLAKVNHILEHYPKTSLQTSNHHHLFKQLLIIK


Molecular target: T1, S. mutans ComD protein (histidine …)
Experiment: cell-based or functional assay

Row | Binder | Transformation efficiency (vs no CSP), S. mutans wild-type UA159, 5 µg/ml peptide
1 | SGSLSTFFRLFNRSFTQALGV [Peptide analog F2] | 543 fold increase (vs no CSP)
2 | SGSSTFFRLFNRSFTQALGK [Peptide analog D1] | 275 fold increase (vs no CSP)
3 | SGSLSTFFRLFNRSFTALGK [Peptide analog A2] | 125 fold increase (vs no CSP)
4 | SGSLSTFFVLFNRSFTQALGK [Peptide analog B2] | 4 fold increase (vs no CSP)
5 | SGTLSTFFRLFNRSFTQA [Peptide analog B3 (JH1005 CSP sequence)] | 195 fold increase (vs no CSP)
6 | SGSLSTFFRLFNVSFTQALGK [Peptide analog D2] | 99 fold increase (vs no CSP)
7 | SGSLSTFFRLFNRSFTQALGA [Peptide analog G2] | 56 fold increase (vs no CSP)
8 | SGSLSTFFRLFNRSFTQALK [Peptide analog F1] | 541 fold increase (vs no CSP)
9 | SGSLSTFFRLFNRSFTQALGK [S. mutans competence signal peptide (CSP), mature wild-type CSP sequence] | 1550 fold increase (vs no CSP)
10 | SGSLSTFFRLFNRSFTQLGK [Peptide analog H1] | 18 fold decrease (vs no CSP)
11 | SGSLSTFFALFNRSFTQALGK [Peptide analog C2] | 32 fold increase (vs no CSP)
12 | SGSLSTFFRLFNRSFTQAGK [Peptide analog G1] | 848 fold increase (vs no CSP)
13 | SGSLSTFFRLFNASFTQALGK [Peptide analog E2] | 252 fold increase (vs no CSP)
14 | SGSLTFFRLFNRSFTQALGK [Peptide analog E1] | 791 fold increase (vs no CSP)

Molecular target: T1, S. mutans ComD protein (histidine …)
Experiment: cell-based or functional assay
Remark: another data set of the same source

Row | Binder | Biofilm formation (SDM-glucose), S. mutans UA159, 5 µg/ml peptide
15 | SGSLSTFFRLFNRSFTQALGV [Peptide analog F2] | 38.7 % biomass (reduction)
16 | SGTLSTFFRLFNRSFTQA [Peptide analog B3 (JH1005 CSP sequence)] | 34.4 % biomass (reduction)
17 | SGSLSTFFRLFNRSFTQALGA [Peptide analog G2] | 35.6 % biomass (reduction)
18 | SGSLSTFFRLFNRSFTQALK [Peptide analog F1] | 36.7 % biomass (reduction)
19 | SGSLSTFFRLFNRSFTQAGK [Peptide analog G1] | 24.4 % biomass (reduction)
20 | SGSLSTFFRLFNASFTQALGK [Peptide analog E2] | 38.9 % biomass (reduction)
